Results on six substances are retold here after US20240317847A1.

Assay [1] deals with murine IL-11 (mouse) (UniProt P47873). The experiment in a line: cell-based or functional assay.
The target in assay [2] is human IL-11 (human) (UniProt P20809). Put plainly: cell-based or functional assay.
The target is the same in assay [3]. The experiment in a line: Tri-complex ELISA, hIL-11 + mIL-11Ra-Fc + hgp130-Fc, inhibition of complex formation. For orientation: In an ELISA, binding on a coated surface is turned into a signal by an enzyme label.
Assay [4] has as its target murine IL-11 (mouse) (UniProt P47873). The experiment in a line: Tri-complex ELISA, mIL-11 + mIL-11Ra-Fc + mgp130-Fc, inhibition of complex formation.
The target is the same in assay [5]. The experiment in a line: SPR (Biacore), antibody captured, IL-11 at single concentration 200 nM. For orientation: In SPR one partner is held on a chip, and binding of the other changes the refractive index at the surface.
Assay [6] concerns the target human IL-11 (human) (UniProt P20809). The assay is described as above.
The target in assay [7] is murine IL-11 (mouse) (UniProt P47873). The experiment in a line: Di-complex ELISA, canine IL11RA-hFc binding to immobilized mIL-11, competition.
The target of assay [8] is human IL-11 (human) (UniProt P20809). The experiment in a line: Di-complex ELISA, canine IL11RA-hFc binding to immobilized hIL-11, competition.
The target in assay [9] is IL-11 [218-IL from R&D Systems, Inc.] (human) (UniProt P20809). The experiment in a line: cell-based or functional assay.
In assay [10] the target is human IL-11 (Invigate, e.g., lot #C121021-19) (human) (UniProt P20809). Put plainly: SPR, Biacore T200, 25 C; antibody captured via anti-mouse Fc, IL-11 as analyte, 1:1 Langmuir fit.
Assay [11] deals with murine IL-11 (Invigate, e.g., lot #C210819-09) (mouse) (UniProt P47873). The description is as above.
Assay [12] concerns the target human IL-11 (Invigate, e.g., lot #C121021-19) (human) (UniProt P20809). Put plainly: cell-based or functional assay.
In assay [13] the target is murine IL-11 (Invigate, e.g., lot #C210819-09) (mouse) (UniProt P47873). Put plainly: cell-based or functional assay.
In assay [14] the target is human IL-11 (Invigate, e.g., lot #C121021-19) (human) (UniProt P20809). The experiment in a line: Tri-complex ELISA: antibody titrated against 8 nM human IL-11, 2 nM human gp130-human-Fc and 2 nM murine IL11RA-murine-Fc.
Assay [15] has the same target. The experiment in a line: Di-complex ELISA: biotinylated human IL-11 on streptavidin plate, antibody titrated against 2 nM canine IL11RA-human-Fc (competitor).
The target of assay [16] is murine IL-11 (Invigate, e.g., lot #C210819-09) (mouse) (UniProt P47873). The experiment in a line: Di-complex ELISA: biotinylated murine IL-11 on streptavidin plate, antibody titrated against 2 nM canine IL11RA-human-Fc (competitor).
For assay [17] the target is unchanged. Put plainly: Tri-complex ELISA: antibody titrated against 8 nM murine IL-11, 2 nM murine gp130-human-Fc and 2 nM murine IL11RA-murine-Fc.

As a reminder, the IC50 is the concentration at which inhibition is half-maximal. One may read the Kd as the free concentration of one partner at which half of the binding sites on the other are occupied at equilibrium, for simple one-to-one binding.

murine IL-11 (Invigate, e.g., lot #C210819-09) (mouse), sequence (P47873 22-199): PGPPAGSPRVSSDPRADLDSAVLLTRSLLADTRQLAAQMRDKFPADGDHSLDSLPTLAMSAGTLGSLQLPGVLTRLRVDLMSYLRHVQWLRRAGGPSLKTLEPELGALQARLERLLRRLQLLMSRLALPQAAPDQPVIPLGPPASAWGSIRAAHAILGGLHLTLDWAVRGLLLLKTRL
murine IL-11 (mouse), sequence (P47873 22-199): as above
human IL-11 (human), sequence (P20809 22-199): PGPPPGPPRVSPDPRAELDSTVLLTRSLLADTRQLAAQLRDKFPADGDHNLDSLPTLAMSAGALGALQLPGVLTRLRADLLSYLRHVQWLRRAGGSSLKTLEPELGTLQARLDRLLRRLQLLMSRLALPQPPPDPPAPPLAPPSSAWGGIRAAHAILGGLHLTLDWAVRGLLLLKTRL
human IL-11 (Invigate, e.g., lot #C121021-19) (human), sequence (P20809 22-199): as above
IL-11 [218-IL from R&D Systems, Inc.] (human), sequence (P20809 22-199 limits assumed): as the sequence (P20809 22-199) above

On to LS-C193526 (antibody), for which the Efficacy (%), Stat3 reporter gene assay was 88.3% with murine IL-11 (mouse) [1] and 52.7% in the assay with human IL-11 (human) [2]. The IC50, Stat3 reporter gene assay stood at 5.6 nM with murine IL-11 (mouse) [1] and 50 nM with human IL-11 (human) [2]. Besides, the Efficacy (%) in the assay with human IL-11 (human) [3] came out at 78.5%; in the assay with murine IL-11 (mouse) [4], 90.3%; in the assay with murine IL-11 (mouse) [7], 96.2%; with human IL-11 (human) [8] it was 90.1%. For the same substance, the IC50 was found to be 10 nM in the assay with human IL-11 (human) [3], 6.6 nM in the assay with murine IL-11 (mouse) [4], 6.5 nM in the assay with murine IL-11 (mouse) [7] and 10 nM with human IL-11 (human) [8]. The Kd with murine IL-11 (mouse) [5] amounted to 6.2 nM; in the assay with human IL-11 (human) [6], 6.3 nM.
On to “IL-11 function blocking polyclonal antibody AF-418-NA (R&D Systems, Inc.)”, for which, in assay [9], the secretion of VEGF-A, primary human fibroid slice assay (ng/mg protein) worked out at 17.3.
LS-C104441 (antibody): the Efficacy (%), Stat3 reporter gene assay worked out at 88% with murine IL-11 (mouse) [1] and 42.6% in the assay with human IL-11 (human) [2]. Further, the IC50, Stat3 reporter gene assay with murine IL-11 (mouse) [1] was found to be 3.9 nM. In addition, the Efficacy (%) with human IL-11 (human) [3] amounted to 65.6%; in the assay with murine IL-11 (mouse) [4], 98.4%; with murine IL-11 (mouse) [7], 91.2%; with human IL-11 (human) [8] it was 71.5%. The half-inhibitory concentration (IC50) in the assay with human IL-11 (human) [3] is 20 nM; with murine IL-11 (mouse) [4] it was 3.8 nM; with murine IL-11 (mouse) [7], 3.5 nM; with human IL-11 (human) [8] it was 5.3 nM. The results for the dissociation constant Kd in the assay with murine IL-11 (mouse) [5] and with human IL-11 (human) [6] were 2.2 nM and 3.9 nM, respectively.
Consider “TPP-14250 (R&D Systems, #MAB218) (antibody)”, for which the Kd in assay [10] worked out at 19 nM; in assay [11], 3.8 nM. The substance further gave an Efficacy (%), Stat3 reporter gene assay, human IL11RA, 0.78 nM hIL-11 in assay [12] of 27.1%. The IC50 [M], Stat3 reporter gene assay, HEK 293F transfected with human IL11RA, 0.78 nM hIL-11 in [12] is 2.41e-10 M. Moreover, the Efficacy (%), Stat3 reporter gene assay, mouse Il11ra, 3.13 nM mIL-11 in assay [13] turned out to be 69.1%. In assay [13], this substance came in with an IC50 [M], Stat3 reporter gene assay, HEK 293F transfected with mouse Il11ra, 3.13 nM mIL-11 of 1.42e-07 M. Further, the Efficacy (%) in assay [14] was 67.2%; in [15], 67.2%; in assay [16] it was 92.3%; in assay [17], 60.9%. The IC50 in assay [14] was 38 nM; in assay [15], 7.4 nM; in [16], 1.3 nM; in assay [17] it was 17 nM.
For the substance GTX52814 (antibody), the Efficacy (%), Stat3 reporter gene assay with murine IL-11 (mouse) [1] stood at 75.5%; in the assay with human IL-11 (human) [2], 5.1%. For the same substance, the Efficacy (%) was found to be 36.9% with human IL-11 (human) [3], 106% with murine IL-11 (mouse) [4], 89.9% in the assay with murine IL-11 (mouse) [7] and 74.9% with human IL-11 (human) [8]. For the same substance, the IC50 with human IL-11 (human) [3] was found to be 14 nM; with murine IL-11 (mouse) [4], 17 nM; with murine IL-11 (mouse) [7] it was 4.7 nM; in the assay with human IL-11 (human) [8], 1.9 nM. Besides, the Kd with murine IL-11 (mouse) [5] came out at 2 nM; with human IL-11 (human) [6], 3.3 nM.
MA5-23711 (antibody): the Efficacy (%), Stat3 reporter gene assay came to 47.6% in the assay with murine IL-11 (mouse) [1] and 19.9% with human IL-11 (human) [2]. In addition, the Efficacy (%) in the assay with human IL-11 (human) [3] amounted to 34.1%; in the assay with murine IL-11 (mouse) [4] it was 62.3%; in the assay with murine IL-11 (mouse) [7], 70.5%; with human IL-11 (human) [8], 51.1%. Moreover, the IC50 with human IL-11 (human) [3] was 19 nM; in the assay with murine IL-11 (mouse) [7] it was 29 nM; in the assay with human IL-11 (human) [8] it was 60 nM. Besides, the Kd with murine IL-11 (mouse) [5] came out at 2 nM; in the assay with human IL-11 (human) [6] it was 3.6 nM.
